These results are taken from patent US20100323905A1 (published 2010).

Assay [1] concerns the target T1, recombinant full-length human PABPN1 (nuclear poly(A)-binding protein 1), T7-tagged and His-tagged, produced … (human, UniProt Q86U42 1-306).
T1 construct: also called recombinant PABPN1; T7-tagged PABPN1; not shown: T7 Tag and His Tag from vector pET28a
T1 sequence (looked up): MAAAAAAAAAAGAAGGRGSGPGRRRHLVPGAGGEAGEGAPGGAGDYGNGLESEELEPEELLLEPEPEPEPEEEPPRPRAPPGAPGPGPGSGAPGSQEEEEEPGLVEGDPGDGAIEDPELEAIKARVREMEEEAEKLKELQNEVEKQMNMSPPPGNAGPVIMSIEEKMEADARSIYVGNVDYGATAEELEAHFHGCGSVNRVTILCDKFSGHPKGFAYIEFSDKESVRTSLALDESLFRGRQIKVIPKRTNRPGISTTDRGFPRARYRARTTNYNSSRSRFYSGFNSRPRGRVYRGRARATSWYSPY
Kind of assay: BIAcore affinity measurement (SPR). (SPR reads the build-up and loss of mass on a sensor chip optically.)

Assay [2] has as its target T1, recombinant full-length human PABPN1 …. Kind of assay: BIAcore affinity measurement (SPR). The source holds these as a separate data set.
For assay [3], the target named is T2, native PABPN1 purified from bovine calf thymus (bovine, UniProt Q28165 2-306).
T2 sequence (looked up): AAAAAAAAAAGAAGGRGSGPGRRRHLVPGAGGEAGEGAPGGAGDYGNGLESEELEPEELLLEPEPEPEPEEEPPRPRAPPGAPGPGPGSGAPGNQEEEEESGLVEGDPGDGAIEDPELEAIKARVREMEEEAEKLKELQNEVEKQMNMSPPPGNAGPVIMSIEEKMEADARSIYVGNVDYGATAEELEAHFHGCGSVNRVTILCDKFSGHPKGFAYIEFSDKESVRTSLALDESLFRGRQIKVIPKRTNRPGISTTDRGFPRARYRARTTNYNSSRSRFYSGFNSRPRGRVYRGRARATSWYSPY
Kind of assay: sandwich ELISA: 3F5 coated, native PABPN1 captured. For orientation: ELISA stands for enzyme-linked immunosorbent assay.

Another assay addresses T3, beta amyloid Aβ 1-42 (UniProt P05067 672-713).
T3 construct: domain: Aβ 1-42; The numbers 1-42 count on the Aβ peptide, not on the precursor; In immunohistochemistry the target is amyloid deposited in human brain sections; also called amyloid b-42; Amyloid-b-42
Kind of assay: ELISA.

Assay [4] deals with T2, native PABPN1 purified from bovine calf …. Kind of assay: affinity measurement (Biacore).
Assay [5] deals with T4, PABPN1 point mutant M129A (UniProt Q86U42 1-306, limits assumed).
T4 sequence (looked up): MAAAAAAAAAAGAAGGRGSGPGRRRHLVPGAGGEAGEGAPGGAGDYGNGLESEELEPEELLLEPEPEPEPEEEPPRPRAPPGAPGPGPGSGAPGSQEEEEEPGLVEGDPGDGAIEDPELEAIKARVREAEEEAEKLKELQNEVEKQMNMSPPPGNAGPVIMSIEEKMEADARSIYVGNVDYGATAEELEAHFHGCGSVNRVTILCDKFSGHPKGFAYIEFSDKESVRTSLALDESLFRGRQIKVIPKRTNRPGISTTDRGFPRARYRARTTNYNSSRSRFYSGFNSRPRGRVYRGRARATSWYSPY
Kind of assay: Western blot of purified mutant proteins.
Source text: (§1) Proteins were separated by SDS-PAGE followed by Coomassie Brilliant Blue staining or transfer to PVDF Western blotting membranes (Roche Diagnostics, Almere, The Netherlands) using the Mini-PROTEAN 8 system for gel electrophoresis and the Mini Trans-Blot Cell for blotting of the proteins (Bio-Rad Laboratories, Hercules, Calif., USA). […] For phage detection a 10,000-fold dilution of a HRP-conjugated monoclonal antibody which binds to the phage coat protein was used (Amersham Biosciences, Uppsala, Sweden).

Assay [6] has as its target T5, PABPN1 point mutant V126S (UniProt Q86U42 1-306, limits assumed).
T5 sequence (looked up): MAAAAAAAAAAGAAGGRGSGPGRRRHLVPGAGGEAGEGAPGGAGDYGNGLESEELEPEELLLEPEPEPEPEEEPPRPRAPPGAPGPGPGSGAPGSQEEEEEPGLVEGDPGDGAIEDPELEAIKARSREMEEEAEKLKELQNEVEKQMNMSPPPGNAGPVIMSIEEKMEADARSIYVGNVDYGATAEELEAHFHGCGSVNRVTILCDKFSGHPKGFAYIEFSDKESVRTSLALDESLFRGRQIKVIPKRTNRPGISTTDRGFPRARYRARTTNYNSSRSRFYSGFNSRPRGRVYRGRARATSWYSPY
Briefly: Western blot of purified mutant proteins.
Source text: as §1

For assay [7], the target named is T1, recombinant full-length human PABPN1 …. Briefly: BIAcore affinity measurement (SPR, CM5 chip).
Procedure: Affinities were calculated using Biacore evaluation software.

T3 sequence (P05067 672-713 limits assumed): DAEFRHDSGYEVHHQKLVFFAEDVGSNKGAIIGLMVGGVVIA

B1: VHH 18 (VHH)
VHH: AVQLVESGGGLVQAGGSLRLSCAASGSIVSLATMGWYRQAPGNQRELVATMSSSGITSYAGSVKGRFTYSRDNAKNTVDLQMNSLKPEDTAVYYCKYSSRWNIYWGQGTLVTVSS
notes: Alignment gaps removed
Regarding B1, the Kd in assay [1] and in assay [2] was 7 nM throughout.

B2: VHH 08 (VHH)
VHH: EVQLVESGGGLVQPGGSLRLSCVASGRTSRISRMAWFRQVPGNERELVATMSSSGITSYAGSVKGRFTISRDNAKNTVDLQMNSLKPEDTAVYYCKYSSRWNIYWGQGTQVTVSS
notes: Alignment gaps removed
As for B2, the Kd in assay [1] and in assay [2] was 57 nM throughout.

B3: VHH 3A9 (VHH)
VHH: QVQLVESGGDLVQAGGSLRLSCAASGHTFDSYGMGWFRQRPGKGREFVAAITMIGGSTHYADSAKGRFTISRDNTKNTISLQMNSLKPEDTAVYYCHAFSRSRFEGYWGQGIQVTVSS
In the case of B3, the Kd (as a rule, the equilibrium constant for the complex coming apart) in assay [2] is 8 nM.

B4: VHH 29 (VHH)
VHH: QVQLVESGGGLVQAGDSLRLSCAASGRTFSSYVMGWFRQAPGKEREFVAAVTGGGISTYYADSVKGRFTISRDNAKNTVYLQMNSLTPEDTAVYYCYARRLNSWGQGTQVTISS
notes: also called antibody fragment 29
On to B4, for which the Kd in assay [1] and in assay [2] was 11 nM each time. For the same molecule, in assay [3], the binding result is “binds”.

B5: VHH 11D (VHH)
VHH: AVQLVESGGGLVQAGGSLRLSCAASQRTFSSYVMGWFRQAPGKEREFVAAIGWSGGSTAYADSVKGRFTISRDNARNTVYLQMNSLKPEDTAVYYCASAPTRWVPRDSRFYDRWGQGTRVTVSS
notes: Selected against amyloid b-42
As to B5, the binding result with beta amyloid Aβ 1-42 is given as “binds”.

B6: VHH 3A (VHH)
VHH: AVQLVESGGGLVRDGGSLRLSCAASGRTFSSYVMGWFRQAPGKEREFVAAIGWSGGSTAYADSVKGRFTISRDNARNTVYLQMNSLKPEDTAVYYCASAPTRWVPRDSRFYDRWGQGTRVTVSS
notes: Selected against Aβ 1-42; 15N-labeled in the NMR titration; also called anti-Aβ1-42 VHH 3A
B6: in the assay with beta amyloid Aβ 1-42, the binding result is reported as “binds”.

B7: VHH 3F5 (VHH)
VHH: EVQLVESGGGLVQAGGSLRLSCAASGRTFSGYGMGWFRQAPGKEREFVAAISWRGGNTYYADSVKGRFTISRDNAKNTVWLQMNSLKPEDTAVYYCSGFVRTRDDPSRIRNYWGQGTQVTVST
notes: also called anti-PABPN1 VHH (3F5)
As for B7, the Kd in assay [4] and in assay [7] was 5 nM throughout. In addition, the binding result in assay [5] and in assay [6] was “no binding” in each case.

B8: VHH 3E9 (VHH)
VHH: QVQLQESGGGLVQPGGSLRLSCVASGFTFSDNAMSWVRRAPGKGLEWVSAINRAGDSARYADSVKGRFTISRDNAKNTLYLQMNSLKPEDTAVYYCTNGGNYRGQGTQVTVSA
Regarding B8, the Kd in assay [2] was found to be 14 nM.
